Measurements: publication PMC6946805

Target: Plasmodium yoelii erythrocyte-binding-like protein (PyEBL), C741 allele of P. yoelii nigeriensis strain N67C, HA::Flag-tagged (Plasmodium yoelii nigeriensis strain N67C)
Test: co-IP; anti-HA antibody immunoprecipitation of HA-tagged PyEBL from supernatants and solubilized pellets of iRBCs of all parasite stages lysed with saponin (0.1%) and centrifuged (1,455 x g, 4°C, 10 min); Western blot of the precipitates with anti-band 3 or anti-TER119 antibody

B1: band 3 (natural protein)
chain: MGDMRDHEEVLEIPDRDSEEELENIIGQIAYRDLTIPVTEMQDPEALPTEQTATDYVPSSTSTPHPSSGQVYVELQELMMDQRNQELQWVEAAHWIGLEENLREDGVWGRPHLSYLTFWSLLELQKVFSKGTFLLGLAETSLAGVANHLLDCFIYEDQIRPQDREELLRALLLKRSHAEDLGNLEGVKPAVLTRSGGASEPLLPHQPSLETQLYCGQAEGGSEGPSTSGTLKIPPDSETTLVLVGRANFLEKPVLGFVRLKEAVPLEDLVLPEPVGFLLVLLGPEAPHVDYTQLGRAAATLMTERVFRITASMAHNREELLRSLESFLDCSLVLPPTDAPSEKALLNLVPVQKELLRRRYLPSPAKPDPNLYNTLDLNGGKGGPGDEDDPLRRTGRIFGGLIRDIRRRYPYYLSDITDALSPQVLAAVIFIYFAALSPAVTFGGLLGEKTRNLMGVSELLISTAVQGILFALLGAQPLLVLGFSGPLLVFEEAFFSFCESNNLEYIVGRAWIGFWLILLVMLVVAFEGSFLVQYISRYTQEIFSFLISLIFIYETFSKLIKIFQDYPLQQTYAPVVMKPKPQGPVPNTALFSLVLMAGTFLLAMTLRKFKNSTYFPGKLRRVIGDFGVPISILIMVLVDSFIKGTYTQKLSVPDGLKVSNSSARGWVIHPLGLYRLFPTWMMFASVLPALLVFILIFLESQITTLIVSKPERKMIKGSGFHLDLLLVVGMGGVAALFGMPWLSATTVRSVTHANALTVMGKASGPGAAAQIQEVKEQRISGLLVSVLVGLSILMEPILSRIPLAVLFGIFLYMGVTSLSGIQLFDRILLLFKPPKYHPDVPFVKRVKTWRMHLFTGIQIICLAVLWVVKSTPASLALPFVLILTVPLRRLILPLIFRELELQCLDGDDAKVTFDEENGLDEYDEVPMPV
Binder B1 has a band 3 signal divided by anti-HA signal, ratio N67C/N67, pellet fraction (fold (N67C over N67)) of 3.3 and a band 3 signal divided by anti-HA signal, ratio N67C/N67, supernatant fraction (fold (N67C over N67)) of 3.1.
